Data set [1] concerns B1R. To be noted: B1R agonist; cited from earlier work.
The next data set concerns U251MG cells. Briefly: Blocking of [^111In]In-DOTA-Ahx-R954 cell accumulation by B1R antagonist or agonist. In kind it is cell-based, human. Particulars: 100 µM blocker, 120 min, n = 4. On the procedure:
(§1) Human glioblastoma cell lines U87MG and U251MG were obtained from the American Type Culture Collection (Manassas, VA, USA) and kept under standard cell culture conditions (5% CO2, 37 °C). Cells were cultured in Eagle’s minimum essential medium (E-MEM; FUJIFILM Wako Pure Chemical Co.) supplemented with 10% v/v foetal bovine serum (BioWest S.A.S, Nuaillé, France), 1% v/v nonessential amino acids (FUJIFILM Wako Pure Chemical Co.), 1 mM sodium pyruvate (FUJIFILM Wako Pure Chemical Co.), and 1% v/v penicillin–streptomycin (10,000 unit-10 mg/mL; FUJIFILM Wako Pure Chemical Co.). Cells were seeded at a density of 1 × 10^5 cells/well in Poly-D-Lysine 24-well plates (Corning Inc., Corning, NY, USA). After 24 h, the medium was removed, and the cells were washed with 500 μL of 0.01 M PBS (+) (FUJIFILM Wako Pure Chemical Co.) and incubated at 37 °C in 500 μL of Hanks Balanced Salt Solution (+) (HBSS (+); FUJIFILM Wako Pure Chemical Co.) for 10 min. […] The value at 0 min was determined by an assay performed using the same protocol as that used immediately after removing the incubation solution. Cell lysate radioactivity was measured using an auto-well gamma counter (2470 WIZARD^2; PerkinElmer, Inc., Shelton, CT, USA), and the protein content of the lysates was measured using a Pierce™ BCA protein assay kit (Thermo Fisher Scientific, Inc., Waltham, MA, USA). […]

A further data set has as its system U87MG cells. The description is as above. To be noted: 100 µM blocker, 120 min, n = 4. In kind it is cell-based, human. On the procedure: as §1
Data set [2] addresses T1, B1R (Homo sapiens, UniProt P46663).
T1 sequence (P46663 1-353): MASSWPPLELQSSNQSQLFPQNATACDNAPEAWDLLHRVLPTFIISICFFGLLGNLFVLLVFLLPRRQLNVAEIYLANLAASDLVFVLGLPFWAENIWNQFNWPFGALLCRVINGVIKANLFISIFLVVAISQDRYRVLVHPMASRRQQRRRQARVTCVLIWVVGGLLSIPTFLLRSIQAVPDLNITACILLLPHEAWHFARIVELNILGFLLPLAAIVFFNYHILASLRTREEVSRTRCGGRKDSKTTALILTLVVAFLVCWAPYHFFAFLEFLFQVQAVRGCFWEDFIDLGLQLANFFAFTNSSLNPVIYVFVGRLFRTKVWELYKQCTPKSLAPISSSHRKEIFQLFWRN
Details: could detect B1R endogenously expressed in glioblastoma cells. Particulars: B1R+ HEK293T cell membrane; read-out: binding affinity (Kd); cited from earlier work. The source says: (§2) Our study has several potential limitations. […] Although we could not evaluate the diagnostic utility of [^111In]In-DOTA-Ahx-R954 by comparing it with previously reported probes for SPECT and PET using parameters obtained under the same experimental conditions, improving the ...

Data set [3] deals with T1, B1R. Details: could detect B1R endogenously expressed in glioblastoma cells; host or cells: U87MG human glioblastoma cells (intact, adherent). Particulars: lung fibroblast cell membrane; read-out: binding affinity (Kd); cited from earlier work.
From the text: as §2

A further data set relates to U87MG tumour xenografts. Details: species or system BALBc nu/nu male mice. Particulars: mouse, in vivo.
Data set [4] concerns the target T1, B1R. Briefly: Saturation binding assay with Scatchard analysis on U87MG cells. Details: could detect B1R endogenously expressed in glioblastoma cells; host or cells: U87MG human glioblastoma cells (intact, adherent). To be noted: tracer 0.7-358 nM, NSB with 100 µM R954, Scatchard analysis, mean of three independent experiments. On the procedure: The affinity of [^111In]In-DOTA-Ahx-R954 for B1R in the cells was measured using an R954 saturation assay with increasing concentrations of [^111In]In-DOTA-Ahx-R954 (range 0.7–358 nM). The Scatchard plot was used to estimate the Kd and Bmax values. The parameters were presented as means of three independent experiments (one assay performed on type I collagen-coated plates and two assays performed on Poly-D-Lysine plates).

Read-outs that look alike come from different tables or passages of the source. Non-standard residues stand in square brackets, D forms with d. Residues, ends and D or L forms follow the SMILES beside them. *: point of attachment. DOTA = O=C(O)CN1CCN(CC(=O)O)CCN(CC(=O)*)CCN(CC(=O)O)CC1; Oic = O=C(O)[C@@H]1C[C@@H]2CCCC[C@@H]2N1; d2Nal = N[C@H](Cc1ccc2ccccc2c1)C(=O)O; αMeF = C[C@](N)(Cc1ccccc1)C(=O)O; Orn = NCCC[C@H](N)C(=O)O; Ahx = NCCCCCC(=O)O

Experimental for U87MG tumour xenografts: Five-week-old BALBc nu/nu male mice (Japan SLC, Inc., Hamamatsu, Japan) were xenografted by subcutaneous injection of U87MG cells (5 × 10^6 cells per 50 μL of culture medium) into their right hind legs. The mice were subjected to biodistribution studies when the tumour weight reached 0.1−0.5 g.
Mice bearing U87MG tumour xenografts were injected via the tail vein with 100 μL of [^111In]In-DOTA-Ahx-R954 (30–74 kBq; 0.01–0.02 nmol) and were sacrificed and dissected 1, 4, and 24 h after administration. […] R954 was co-injected with [^111In]In-DOTA-Ahx-R954, and mice were sacrificed and dissected 1 and 4 h after administration. The tissues of interest were removed and weighed, and radioactivity was determined using an auto-well gamma counter. The results are presented as a percentage of the injected dose per gram (% dose/g).

In general, pEC50 refers to the negative decadic logarithm of the EC50, by convention in mol/L. As for [des-Arg^10]-kallidin, in the data set with B1R [1], the pEC50 was 9.7. Moreover, the “change in accumulated radioactivity in blocking study” value in the data set on U251MG cells is “not in U251MG cells”; in the data set on U87MG cells, “significant decrease”.

As a reminder, the Kd is the constant that tells how readily two partners part at equilibrium. With [^3H](des-Arg^10, Leu^9)-kallidin, the Kd with B1R [2] is 1.9 ± 0.5 nM; in the data set with B1R [3], 0.33 ± 0.07 nM.

On to `CC[C@H](C)[C@H](NC(=O)[C@@H](Cc1ccc2ccccc2c1)NC(=O)[C@H](CO)NC(=O)[C@](C)(Cc1ccccc1)NC(=O)CNC(=O)[C@@H]1CCCN1C(=O)[C@@H]1C[C@@H]2CCCC[C@@H]2N1C(=O)[C@H](CCCNC(=N)N)NC(=O)[C@H](CCCN)NC(=O)CCCCCNC(=O)CN1CCN(CC(=O)O)CCN(CC(=O)O)CCN(CC(=O)O)CC1)C(=O)O` [[^111In]In-DOTA-Ahx-R954, metal not drawn] ({DOTA-Ahx}-[Orn]R[Oic]PG[αMeF]S[d2Nal]I-OH), for which, in the data set on U87MG tumour xenografts, the blood-brain barrier penetration entry was “poor”, the “reduction of radioactivity level in plasma compared to 1 h” value was found to be 98% and the “reduction of radioactivity level in tumour compared to 1 h” value stood at 48%. The same compound had a dissociation constant (Kd) at B1R [4] of 54.1 ± 18.9 nM.

The values above are taken from publication PMC11279923, “Assessment of Radiolabelled Derivatives of R954 for Detection of Bradykinin B1 Receptor in Cancer Cells: Studies on Glioblastoma Xenografts in Mice” (Pharmaceuticals, 2024).
